The record followed here is US5814599A, “Transdermal delivery of encapsulated drugs” (Massachusetts Insitiute of Technology, priority 1995, dated 1998).

A short description of data set [1]: In vitro skin permeability to proteins in the presence of ultrasound (Franz diffusion cell). It is filed as in vitro ADME, human. The procedure: To assess whether application of ultrasound enhances transdermal protein flux, the skin permeability to these proteins in the presence of ultrasound in vitro across human cadaver epidermis in a Franz Diffusion Cell (Crown Glass Company) was measured. […] The concentration of proteins in the receiver compartment was measured every hour either by RIA or ELISA. The insulin concentration in the receiver compartment was measured every hour by Radioimmuno Assay (performed at Linco Research Inc., St. Charles). The γ-interferon concentration was measured using ELISA methods developed by Endogen Inc, and the erythropoeitin concentration was measured by ELISA (performed at ARUP, Salt Lake City). Skin permeabilities to proteins were calculated using the transdermal fluxes measured during the first hour. The transdermal flux can be calculated using the equation, J=DM/.increment.t, where .increment.M is the amount of protein transported per unit skin area during time .increment.t. The skin permeabilities, P, can be calculated from the transdermal flux, J, during the first hour of ultrasound application using the equation, P=J/.increment.C, where .increment.C is the concentration difference across the skin.

A short description of data set [2]: Transdermal glucose extraction by sonophoresis in vitro. It is filed as in vitro ADME, human. To be noted: for glucose concentration attained in the donor compartment: 10 minutes sonophoresis; for glucose concentration in the donor compartment as percent of that in the receiver compartment: 20 KHz, 125 mW/cm^2, continuous. Here is the method: Transdermal transport of a ^14 C labeled (New England Nuclear) as well as non-labeled (Sigma Chemicals) was studied in the presence as well as in the absence of low-frequency ultrasound. The permeability experiments were performed in vitro using human cadaver skin obtained from local hospitals. […] The Franz diffusion cell consists of two compartments, the donor and the receiver compartments, with the stratum comeum facing the donor compartment. […] The donor and receiver compartments were then clamped. The receiver compartment was filled Phosphate Buffer Saline (PBS, phosphate concentration=0.01M, NaCl concentration=0.137M) (Sigma Chemicals Co.) The donor compartment was filled with a solution of either radiolabelled glucose (1 mCi/ml) or non-labeled glucose (concentration in the range of 50 mg/dL to 300 mg/dL) in separate experiments. The concentration of the permeant in the receiver compartment was measured every 5 minutes using a scintillation counter (model 2000 CA, Packard) in the case of radiolabelled glucose and using a commercially available kit (Sigma Chemicals) in the case of unlabeled glucose.
Ultrasound was applied using a sonicator (VCX 400, Sonics and Materials) operating at a frequency of 20 KHz. The ultrasound intensity was measured using a hydrophone (Model 8106, Bruel and Kjaer).
Additional experiments were performed to assess whether the amount of glucose transported by sonophoresis is proportional to the glucose concentration in the […]. In separate experiments, glucose concentration in the receiver solution was varied from 50 mg/dL to 350 mg/dL (typical variation in the blood glucose level of a diabetic patient) and performed sonophoresis using ultrasound (20 KHz, 125 mW/cm^2, continuous) for 10 minutes. […] The line shown in FIG. 3B represents the best fit.

Data set [3] deals with hairless rats. The experiment in a line: Transdermal glucose extraction by sonophoresis in vivo. On the set-up: species or system rat. The following applies: 20 KHz, 62.5, continuous, 1 minute. The procedure: In vivo experiments were performed to assess the efficacy of sonophoresis across living skin. […] The hairless rats were anesthetized with a mixture of ketamine (60 mg/kg) and xylazine (10 mg/kg). After about an hour in anesthesia, a flanged glass cylinder (Crown Glass Company, diameter 20 mm, height 2 cm) was glued on the rat's back using a minimal amount of superglue (Permabond International) or vacuum grease (Dow Chemicals) on the outer edge of the flange. The center of the cylinder was located about 3 cm from the rear end of the rat. This particular site was chosen to avoid application of ultrasound directly on a sharp bone close to the body surface, which otherwise might have caused damage to the blood capillaries near the edge of the bone. The cylinder was filled with PBS (phosphate concentration=0.01M, NaCl concentration=0.137M) (Sigma Chemicals Co.). […] The concentration of glucose in PBS was measured using an assay kit (Sigma Chemicals).

How the values of data set [4] were obtained: (§1) Materials and methods: In vivo as well as in vitro experiments were performed to study the effect of low-frequency ultrasound on the transport of insulin across the skin. In vitro experiments were performed using human cadaver skin. The skin was heat stripped by keeping it in water at 60° C. for two minutes followed by the removal of the epidermis. It was then stored at 4° C. in a humidified chamber. A piece of epidermis was taken out from the chamber prior to the experiments and was mounted on the Franz diffusion cell (Crown Bioscientific Co.) which consists of two compartments, the donor and the receiver compartment. […] The human cadaver epidermis (separated from the dermis by heat-treatment) is mounted between the two compartments and is supported by a Nylon mesh (Tetko Inc.) to avoid any damage. The skin was supported by a nylon mesh (Tetko Inc.) in order to a mimic the fact the skin in vivo is supported by mechanically strong dermis. The compartments were then clamped together. The receiver compartment was filled with 2%. BSA (Sigma Chemicals) solution in PBS (Sigma Chemicals) and the donor solution was filled with 100 U/ml solution of human recombinant insulin (Humulin Regular). The ultrasound intensity, I, (Spatial Average Temporal Peak) was calculated from the values of the acoustic pressure amplitude, P, measured using a hydrophone (Bruel and Kjaer) using the equation, I=P^2 /2.rho.c, where .rho. is the water density (1 gm/ml), and c is the velocity of ultrasound in water [1500 m/s].

How the values of data set [5] were obtained: as §1
Ultrasound was turned ON at a frequency of 20 KHz, an intensity varying in the range of 0 to 1 W/cm^2 and 10% duty cycle. Samples (200 μl) were taken from the receiver compartment every hour to measure the concentration of insulin in the receiver compartment. The samples were immediately frozen and were stored at -20° C. till they were analyzed by RIA (Linco Research Co.). Ultrasound was typically applied for 4 hours and was then turned OFF. Transdermal insulin flux was followed for next two hours.
This is another data set of the same source.

For data set [6], the system named is hairless rats. In words: In vivo insulin sonophoresis, blood glucose level of normal hairless rats. To be noted: for amount of insulin delivered: 225 mW/cm^2, area 3 cm^2; for blood glucose level after ultrasound exposure: normal rats, from about 250 mg/dl. Here is the method: Materials and Methods: In vivo experiments were performed using hairless rats (Charles River). The rats were kept in quarantine to insure good health. On the day of experiment, they were taken out of the cages, anesthetized using a mixture of ketamine (90 mg/kg) and xylazine (10 mg/kg). After about an hour into anesthesia, a glass chamber was glued to the back of the rat using superglue (Permeabond). The glass chamber was filled with 100 U/ml solution of insulin and ultrasound (frequency of 20 KHz, intensity in the range of 0 to 1 W/cm^2, 100 msec pulses applied every second) was applied. The blood glucose level was measured every 30 minutes. Ultrasound was typically turned OFF after 1 hour, although the measurements of the blood glucose were continued for the next three hours.
To estimate the amount of insulin penetrating the hairless rat skin during sonophoresis at the various intensities reported in FIG. 2A, various known amounts of insulin in the range of 0 to 1 U subcutaneously (most commonly used method of insulin administration today) in normal rats. The blood glucose levels of these rats were then compared with those of the normal rats undergoing sonophoresis.
In order to estimate the dependence of the amount of insulin delivered on ultrasound exposure time (in vivo), insulin-sonophoresis experiments (20 KHz, […], 100 msec pulses applied every second) were performed on normal rats for different exposure times in the range of 1 minute to 1 hour.

In data set [7] the test system is diabetic hairless rats. In words: In vivo insulin sonophoresis, blood glucose level of diabetic hairless rats. On the set-up: species or system rat. The following applies: in 30 minutes, 20 KHz. The procedure: The blood glucose level was measured every 30 minutes.
For data set [8] the following is noted: diabetic hairless rats.
Setting [9] is: within 2 hours after turning ultrasound OFF.

Read-outs that look alike come from different tables or passages of the source.

erythropoeitin: in data set [1], the “dose deliverable from a transdermal patch by sonophoresis” value (“dose deliverable” below) was “about 140 U/h” and the human skin permeability was 9.8×10^-6 (±40%) cm/h.
As for `O=C[C@H](O)[C@@H](O)[C@H](O)[C@H](O)CO` [glucose], the “glucose concentration attained in the donor compartment” value is 0.5 mg/dL in data set [2] (receiver compartment 50 mg/dL) and 6.5 mg/dL in data set [2] (receiver compartment 350 mg/dL). Moreover, the entries for the “glucose concentration in the donor compartment as percent of that in the receiver compartment” value in data set [2] (after 5 minutes of sonophoresis) and in data set [2] (after 10 minutes of sonophoresis) were “about 0.5%” and “about 2%”, respectively. Besides, the “glucose concentration in the reservoir after extraction” value in data set [3] (rat blood glucose 450 mg/dL) is listed as 1 mg/dL; in data set [3] (rat blood glucose about 200 mg/dL), 0.2 mg/dL.
For the molecule `O` [water], in data set [4] (during sonophoresis, 20 KHz, 125 mW/cm^2, 100 msec pulses every second), the water permeability enhancement came to 100 fold. Moreover, the “recovery of water permeability enhancement” value in data set [4] (setting [9]) is given as “about 94 (±3) %”; in data set [4] (within 15 hours after turning ultrasound OFF), 98 (±1) %.
Take insulin: the “transdermal insulin flux before ultrasound” value in data set [5] (before ultrasound turned ON) was “below the detection limit”. The “insulin dose that could be delivered from a patch” value in data set [5] (flux 100 mU/cm^2 /hr, patch area 100 cm^2) is “about 13 U/h”. For the same molecule, the figures for the “transdermal insulin flux after turning ultrasound OFF” value in data set [5] (three hours after turning ultrasound OFF) and in data set [5] (setting [9]) were “statistically insignificant” and “below our detection limit”, respectively. Also, the transdermal insulin flux entry in data set [5] (ultrasound 20 KHz, 125 mW/cm^2, 10%, reached in about 1 hour, almost constant while ultrasound ON, donor 100 U/ml) was “about 100 mU/cm^2 /hr”. The “transdermal insulin permeability without ultrasound” value in data set [5] (ultrasound intensity = 0 (FIG. 1B)) was “impermeable”. Also, in data set [1] (patch area 40 cm^2, donor 100 U/ml insulin, 3×10^7 γ-interferon, 3×10^5 U/ml erythropoeitin), the “dose deliverable” value was “about 12 U/h”. For the same molecule, in data set [1] (ultrasound 20 KHz, 225 mW/cm^2, 100 msec pulses every second, first hour), the human skin permeability was 3.3×10^-3 (±35%) cm/h. The “blood glucose level upon 1 hour insulin-ultrasound treatment” value in data set [6] (20 KHz, 100 msec pulses every second, intensities 0 to 225 mW/cm^2) is listed as “intensity dependent decrease”. Besides, the “amount of insulin delivered” value in data set [6] (10 minute ultrasound application) is on record as “about 100 mU”; in data set [6] (1 hour ultrasound exposure) it was “about 1 U”. In addition, the “blood glucose level after ultrasound exposure” value was “about 150 mg/dl” in data set [6] (10 minute exposure, 20 KHz) and “about 30 mg/dl” in data set [6] (1 hour exposure, 20 KHz). The “subcutaneous insulin dose inducing a similar decrease in blood glucose level” value was determined as 100 mU in data set [6] (sonophoresis 1 hour at 62.5 mW/cm^2) and 1 U in data set [6] (sonophoresis 1 hour at 225 mW/cm^2). Besides, the “blood glucose level after insulin-ultrasound treatment” value in data set [7] (diabetic hairless rats, from about 400 mg/dl, 225 mW/cm^2, 100 msec pulses every second) worked out at 200 mg/dL; in data set [7] (diabetic rat, from 400 mg/dl, 125 mW/cm^2, 100 msec pulses every second), 200 mg/dL. The “level of transdermally delivered human insulin in rat plasma” value in data set [8] (after 30 minutes of sonophoresis) was 77 (±28) picomolar; in data set [8] (after 1 hour of sonophoresis) it was 178 (±84) picomolar.

B1: γ-interferon (protein, UniProt P01579 24-161, looked up)
Interferon gamma: QDPYVKEAENLKKYFNAGHSDVADNGTLFLGILKNWKEESDRKIMQSQIVSFYFKLFKNFKDDQSIQKSVETIKEDMNVKFFNSNKKKRDDFEKLTNYSVTDLNVQRKAIHELIQVMAELSPAAKTGKRKRSQMLFRG
notes: γ-interferon (2500 U/ml, Genzyme Corp.), molecular weight 17,000 D
Regarding B1, in data set [1], the “dose deliverable” value is on record as “about 5×10^6 U/h” and the human skin permeability is given as 8×10^-4 (±22%) cm/h.
